Measured values taken from PMC12421882, “ThIPK1 regulates lignocellulolytic enzyme expression during wood degradation in white-rot fungi” (mBio, 2025).

Substrate: O=P(O)(O)O[C@@H]1[C@@H](OP(=O)(O)O)[C@H](OP(=O)(O)O)[C@H](O)[C@H](OP(=O)(O)O)[C@H]1OP(=O)(O)O
Experiment: Kinase-Glo Max luminescent kinase assay; Michaelis-Menten nonlinear regression
Assay type: biochemical, Trametes hirsuta
Conditions: 300 µM ATP, 5 mM MgCl2, 50 mM NaCl, 50 mM Tris pH 7.5, 28°C

B1: ThIPK1 (Trametes hirsuta) (protein)
chain: MENDAPIIGDTSPQDWKYISEGGSTIVFSYVGPPHPSFDGTALRLRKGPTPAHEDPEKYEKPSLAPAEPSQEPEASAAGGADDEEPDDPTVVFQRTVIERLVPTAHLPRLQPVRVARAWLAQLAARTEALRPAERRARDAIDLGRRKAVLATDLVGGEGWAVEIKPKWGFLPQPAYLSPETRAIKTRTCRFCMHAQLKKTEGEDVALGYCPLDLYSGDAGRVERALRELWDVWVGSGGAVNNLRVFVQGKMVKPSADPASLAPLTAQLLPPTSTTSPDSEPPAATRPPDTLRDAFIATLLPLLLDTPVLRTLSTLQRTLDALDIEGLAALWARVHPAHALGTGPGPGAADPDIAAWARFVDEHIDRLAQAAEDAKGAGEGEGQGENGSEVPATEDELRYRVAAYLLGASFKDCSLILRMRPHAQGTVTVIDLDVKSADRLGKWAALDREIVDAYRGVSNARRCVDAHYGAVPLP
notes: full-length cDNA in pET28a(+), E. coli BL21(DE3), Ni-NTA
Km: 31.42 µM
